# In patent US20190284279A1:
# Assays:
# [1] = target: human CD19 antigen on the surface of B lymphoma cells (Raji, Daudi, IM-9, Namalwa) (human) (UniProt P15391); assay: cell-based or functional assay
# [2] = target: human CD3 (CD3ε molecule) on the surface of Jurkat T cells (human) (UniProt P07766); assay: cell-based or functional assay
# [3] = target: human CD3 (CD3ε molecule) on the surface of Jurkat T cells (human) (UniProt P07766); assay: flow cytometry on Jurkat cells
# [4] = target: human CD19 antigen on the surface of B lymphoma cells (Raji, Daudi, IM-9, Namalwa) (human) (UniProt P15391); assay: flow cytometry on Raji cells; control antibody at 5 µg/ml
# [5] = target: human CD19 antigen on the surface of B lymphoma cells (Raji, Daudi, IM-9, Namalwa) (human) (UniProt P15391); assay: flow cytometry on Raji cells; control antibody at 15 µg/ml
# [6] = target: human CD19 antigen on the surface of B lymphoma cells (Raji, Daudi, IM-9, Namalwa) (human) (UniProt P15391); assay: flow cytometry on Raji cells; control antibody at 0.185 µg/ml
# [7] = target: human CD19 antigen on the surface of B lymphoma cells (Raji, Daudi, IM-9, Namalwa) (human) (UniProt P15391); assay: flow cytometry on Raji cells; control antibody at 0.556 µg/ml
# [8] = target: human CD19 antigen on the surface of B lymphoma cells (Raji, Daudi, IM-9, Namalwa) (human) (UniProt P15391); assay: flow cytometry on Raji cells; control antibody at 1.667 µg/ml
ED50 of CD69 expression (Mean FL2-A) on Jurkat E6-1 cells co-cultured with Raji cells (10:1) [2],EC50 [3],average fluorescence value [4],average fluorescence value [5],average fluorescence value [6],average fluorescence value [7],average fluorescence value [8],Substance,ED50 of killing of Daudi cells by human PBMC (Fluo 3-AM release) [1],ED50 of killing of Namalwa cells by human PBMC (Fluo 3-AM release) [1],ED50 of killing of Raji cells by human PBMC (Fluo 3-AM release) [1]
–,–,–,–,–,–,–,"BLI-193 (tandem single chain antibody structure, blinatumomab) (bispecific antibody)",2.57 ng/mL,0.107 ng/mL,0.0868 ng/mL
1280 ng/mL,6.09 nM,3460,3710,3860,3390,3570,OKT3 monoclonal antibody (mouse anti-human CD3 monoclonal antibody),–,–,–
